From PMC8727134 come the findings set out here.

B1: MT2 (dsDNA)
DNA 1: AGCTCCGTTATAGAAT
DNA 2: ATTCTATAACGGAGCT
B2: WT2 (dsDNA)
DNA 1: AGCTCTGTGGTAGAAT
DNA 2: ATTCTACCACAGAGCT
B3: MT1 (dsDNA)
DNA 1: GAAAAATAACGTATGG
DNA 2: CCATACGTTATTTTTC

Chain of RUNX1 Runt domain (His6-RUNX1);CBFbeta (His6-CBFβ) (Q03347 24-189, chain 1 of 2): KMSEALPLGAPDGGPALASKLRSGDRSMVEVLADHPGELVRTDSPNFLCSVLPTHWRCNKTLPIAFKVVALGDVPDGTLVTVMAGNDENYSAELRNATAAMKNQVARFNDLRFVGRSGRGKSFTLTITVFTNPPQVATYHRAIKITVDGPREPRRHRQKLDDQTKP
Chain of RUNX1 Runt domain (His6-RUNX1);CBFbeta (His6-CBFβ) (Q08024 whole entry, chain 2 of 2, the tested form may be a part): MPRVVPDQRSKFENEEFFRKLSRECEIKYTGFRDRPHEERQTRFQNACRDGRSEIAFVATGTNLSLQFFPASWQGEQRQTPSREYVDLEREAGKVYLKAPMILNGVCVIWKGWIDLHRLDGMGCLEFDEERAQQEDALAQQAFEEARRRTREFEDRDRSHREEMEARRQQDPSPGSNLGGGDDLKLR

The data set has as its target RUNX1 Runt domain (His6-RUNX1);CBFbeta (His6-CBFβ) (mouse;mouse, UniProt Q03347;Q08024 24-189;1-187, |). The experiment in a line: EMSA. A general note: A gel shift assay detects complexes by their altered migration in electrophoresis.
With B1, the binding result was “no binding”.

For B2, the binding result is “no binding”.

For B3, the binding result was “no binding”.
